US8003345B2, “Antioxidant pharmaceutical compound, method for producing polypeptide and method of cure” (Institute of Cell Biophysics Russian Academy of Sciences, priority 2002, dated 2011)

Assays:
[1] = Cytotoxicity: number of live line L929 cells; format: cell-based, human; conditions: 0.1-10 μg/ml concentration; Trypan stain
Protocol: (§1) The cytotoxicity is determined from the influence of recombinant Prx V1hum or of natural rat Prx V1rat on the level of proliferation of line L929 human lymphoblastoma cells and of T-lymphocytes from the spleen of line NRRI rats stimulated with concavalin A.
(§2) Cells of two lines with the concentration of 10^4 cells/ml medium were cultivated in RPMI 1640 containing 5% of bovine fetal serum. The stimulation of T-lymphocytes was carried out with the 0.1 μg/ml concentration of concavalin. In the case of T-lymphocytes the proliferation level was determined from the inclusion of ^3H-thymidine. The number of live line L929 cells was determined in a 96-cell plate with the aid of a Trypan stain, followed by scanning on a Multiscan multichannel photometer (LKB, Sweden).

[2] = system: T-lymphocytes from the spleen of line NRRI rats stimulated with concavalin A; assay: Proliferation of concanavalin A-stimulated T-lymphocytes (3H-thymidine inclusion); format: cell-based; conditions: 0.1-1.0 mg/ml concentration, against cells stimulated only with concavalin A
Protocol: as §1, §2

[3] = Distribution of labeled peroxiredoxin in the organism after intravenous injection; format: in vivo, rat; conditions: 10 mg per animal, fluorescein-labeled
Protocol: For detecting the distribution of exogenous peroxiredoxin Prx VI in different tissues of the organism, a recombinant Prx V1hum labeled with fluorescein isocyanate was introduced into the rat's vein in an amount of 10 mg per animal. After definite periods of time the animals were sacrificed, the tissues of different organs were isolated, and luminescent analysis of the obtained samples was carried out. […] Thus, the method of introducing peroxiredoxin Prx VI by intravenous injection makes it possible to increase its content in almost all the tissues of the organism.

[4] = system: tracheal epithelium of rat after burn with vapors of hydrochloric acid; assay: Chemical burn (HCl vapors) of the upper respiratory tract of rat; format: in vivo
Protocol: The therapeutic properties of recombinant peroxiredoxin Prx V1hum in treating the upper respiratory tract of rat 24 hours after a burn were tested on a group of 4 Wistar line rats having a weight of 150-200 grams. The rats were analgized with analgin (100 mg/kg weight) and placed for 10 minutes into an exsiccator saturated with HCl vapors (the exsiccator volume was 10 liters, 20 animals were used). After the chemical burn, the rats were maintained for a definite period of time (40 min, 6 hrs, 1 day, 2 days, 14 days, 30 days), then narcotized with hexenal (300 mg/kg weight), and a sample of the tracheal epithelial tissue was isolated. For histochemical investigations the isolated sample was placed into a fixing solution containing 2% of formaldehyde and 0.5% of glutaraldehyde. The tissue was dehydrated .by sequential routing through ethyl alcohol with increasing concentration (40-100%). The tissue was embedded into LR white resin. The resin was polymerized at room temperature. 0.5 em-thick sections were made on an LKB ultratome (Sweden), using glass knives. The sections were stained with a hematoxylin-eosine and analyzed under a light microscope.
Maximum degradation of the epithelium is observed 24 hours after the burn, the ciliated cells which provide the mucus flow in the trachea being almost absent. Two weeks later a partial restoration of the ciliated cells is observed. […]

[5] = system: tracheal epithelium of rat after application of lipopolysaccharide; assay: Inflammation of rat tracheal epithelium caused by lipopolysaccharide (LPS); format: in vivo
Protocol: The therapeutic properties of peroxiredoxin Prx VI in treating the upper respiratory tract of rat immediately after the application of LPS were checked on a group of 4 Wistar line rats weighing 150-200 grams. The application of LPS was carried out in the following manner. The rats were anesthetized with hexenal, and 100 μl of a lipopolysaccharide solution were introduced through a catheter (the lipopolysaccharide concentration was from 10^−9 to 10^−11 mg/ml, the total number of the used animals was 20). After the application of the lipopolysaccharide, the rats were maintained for a definite period of time (1 hour, 3 hours, 6 hours, 7 hours, 9 hours), then narcotized with hexenal (300 mg/kg weight), and a sample of the tracheal epithelial tissue was isolated. For histochemical investigations the isolated sample was placed into a fixing solution containing 2% of formaldehyde and 0.5% of glutaraldehyde. The tissue was dehydrated by sequential routing through ethyl alcohol with increasing concentration (40-100%). The tissue was embedded into LR white resin. The resin was polymerized at room temperature. 0.5 em-thick sections were made on an LKB ultratome (Sweden), using glass knives. The sections were stained with a hematoxylin-eosine and analyzed under a light microscope.
For biochemical investigations we scraped the epithelium with a thin spatula, washed off the scrape with physiological solution and centrifugated at 10000 g for 15 min. The concentration of hydrogen peroxide was by the luminescence method. […] After LPS, application of a solution of a composition based on peroxiredoxin Prx VI into the trachea was carried out. Preliminarily the rats were narcotized by intraperitoneal administration of hexenal (70 mg/kg), the animals were fixed on an operating table, and under visual control with the aid of a binocular lens, through a catheter of 1 mm in diameter, peroxiredoxin solution (20 to 100 μl) was introduced into the trachea. The peroxiredoxin concentration was from 0.5 to 5.0 mg/ml. A 0.9% solution of NaCl was used as the solvent. The application of the solution of the composition was carried out once, immediately after the application of LPS. The application of pure solvent, solutions of serum albumin (10 mg/ml) and of glutathione (10 mM) were used as control.
Histological investigation of the trachea was carried out 24 hrs after the LPS application.

[6] = system: glutamine synthetase of E.coli; conditions: DTT/Fe3+/O2 oxidative system, 3 mM activator, 10 min at 37° C.; FIG. 3
Protocol: Comparison of the protector properties of recombinant full-size Prx Vlhum with the protector properties of natural rat Prx VIrat and with the protector properties of N-terminal ΔPrx V1hum in terms of protecting glutamine synthetase of E.coli from inactivation in a model oxidative system in vitro.
For determining the activity of different types of peroxiredoxins, their ability to protect glutamine synthetase from the DTT/Fe^+3/O2 oxidative system is measured. Glutamine synthetase is isolated from cells of the E.coli DH5α strain (Streicher S. L., Tyler B., 1980) and inactivated in the presence of a Fe^3+/O2 oxidative system and a peroxiredoxin activator—in the model oxidative system generating free radicals (Kim K. et al., 1988). […] The residual activity of glutamine synthetase is assessed by adding to the sample 200 μl of a reaction mixture which comprises: ADP, 0.4 mM; glutamine, 150 mM; K—AsO4, 10 mM; NH2OH, 20 mM; MnCl2, 0.4 mM; HEPES, 100 mM, pH 7.4. […] The protector properties of peroxiredoxin for protecting glutamine synthetase of E.coli from inactivation are determined as the ratio of the remaining activity of the enzyme after the inactivation in the presence of different concentrations of peroxiredoxin to the activity of non-inactivated glutamine synthetase.

[7] = system: tracheal epithelium of rat after application of lipopolysaccharide; assay: Inflammation of rat tracheal epithelium caused by lipopolysaccharide (LPS); format: in vivo; remark: listed apart in the source

B1: Prx VIhum: recombinant full-size human peroxiredoxin Prx VI, 224 amino acids (SEQ ID NO: 1), produced in E.coli (protein)
chain: MPGGLLLGDVAPNFEANTTVGRIRFHDFLGDSWGILFSHPRDFTPVCTTELGRAAKLAPEFAKRNVKLIALSIDSVEDHLAWSKDINAYNCEEPTEKLPFPIIDDRNRELAILLGMLDPAEKDEKGMPVTARVVFVFGPDKKLKLSILYPATTGRNFDEILRVVISLQLTAEKRVATPVDWKDGDSVMVLPTIPEEEAKKLFPKGVFTKELPSGKKYLRYTPQP
- effect on the number of live line L929 cells [1]: did not produce any effect
- cell proliferation level of T-lymphocytes stimulated with concavalin A [2]: increased approximately twofold
- distribution among organs ([3]; 15 minutes after intravenous injection, luminescent analysis): uniformly distributes among all the organs of the rat, including the brain
- amount in bone marrow ([3]; after intravenous injection): small, compared with other tissues
- regeneration of tracheal epithelium (curative effect) ([4]; 14 days after burn, application started 24 hours after burn, once a day during 5 days, FIG. 7): almost complete regeneration of the ciliary cells of the epithelium
- preservation of tracheal epithelial cells (protector effect) ([4]; application 1 hour after the burn, epithelium 24 hours after chemical burn, FIG. 6): Almost complete preservation of all epithelial cells
- preservation of the tracheal epithelium ([5]; 24 hrs after LPS, application immediately after the LPS, FIG. 9B): Complete preservation of the epithelium
- Integrity of tracheal epithelium (according to histological data) ([5]; Time after the action of LPS: 1 hour): 90%
- Integrity of tracheal epithelium (according to histological data) ([5]; Time after the action of LPS: 3 hours): 80%
- Integrity of tracheal epithelium (according to histological data) ([5]; Time after the action of LPS: 6 hours): 65%
- protector properties: antioxidant characteristics in protecting glutamine synthetase from inactivation [6]: close to the natural rat peroxiredoxin Prx VIrat
- Integrity of tracheal epithelium (according to histological data) ([7]; Treatment 24 hours later for 5 days and the integrity of epithelium 2 weeks later): 80%
- restoration of the epithelial tissue ([7]; after 2 weeks, single application into the trachea immediately after LPS, FIG. 9): almost complete restoration of the epithelial tissue
